Data as given in IntAct's records for PubMed 26822058.

B1: MARVEL domain-containing protein 2 (Homo sapiens), Q8N4S9 (parent)
chain: MSNDGRSRNRDRRYDEVPSDLPYQDTTIRTHPTLHDSERAVSADPLPPPPLPLQPPFGPDFYSSDTEEPAIAPDLKPVRRFVPDSWKNFFRGKKKDPEWDKPVSDIRYISDGVECSPPASPARPNHRSPLNSCKDPYGGSEGTFSSRKEADAVFPRDPYGSLDRHTQTVRTYSEKVEEYNLRYSYMKSWAGLLRILGVVELLLGAGVFACVTAYIHKDSEWYNLFGYSQPYGMGGVGGLGSMYGGYYYTGPKTPFVLVVAGLAWITTIIILVLGMSMYYRTILLDSNWWPLTEFGINVALFILYMAAAIVYVNDTNRGGLCYYPLFNTPVNAVFCRVEGGQIAAMIFLFVTMIVYLISALVCLKLWRHEAARRHREYMEQQEINEPSLSSKRKMCEMATSGDRQRDSEVNFKELRTAKMKPELLSGHIPPGHIPKPIVMPDYVAKYPVIQTDDERERYKAVFQDQFSEYKELSAEVQAVLRKFDELDAVMSRLPHHSESRQEHERISRIHEEFKKKKNDPTFLEKKERCDYLKNKLSHIKQRIQEYDKVMNWDVQGYS

Variants of: B1
Details: with plmn_human PLG

Variant | effect of a mutation on the interaction
K217A | decreasing interaction strength
K217A;K252A | disrupting interaction strength
K252A | decreasing interaction strength
